In test [1] the target is T1, human CD137 expressed on cells (human, UniProt Q07011 24-255). In words: cell-based or functional assay.
Test [2] deals with T2, human PD-L1 expressed on cells (human, UniProt Q9NZQ7 19-290). In words: cell-based or functional assay.
In test [3] the target is T1, human CD137 expressed on cells. In words: cell-based or functional assay. The source holds these as a separate data set.
For test [4], the target named is T3, biotinylated human PD-L1 (human, UniProt Q9NZQ7 19-238, limits assumed, biotinylated).
T3 construct: also called biotinylated PD-L1
In words: competition ELISA; coated human PD-1 as competitor; biotinylated human PD-L1 pre-incubated with inhibitor.

The target in test [5] is T1, human CD137 expressed on cells. In words: cell-based or functional assay. This is another data set of the same source.
For test [6] the target is unchanged. In words: cell-based or functional assay. The source holds these as a separate data set.
Test [7] shares this target. In words: cell-based or functional assay. The source holds these as a separate data set.
Test [8] addresses T3, biotinylated human PD-L1. In words: competition ELISA; coated human B7.1 as competitor; biotinylated PD-L1 pre-incubated with inhibitor.
In test [9] the target is T1, human CD137 expressed on cells. In words: cell-based or functional assay. The source holds these as a separate data set.
Test [10] has the same target. In words: cell-based or functional assay. The source holds these as a separate data set.
Test [11] deals with T3, biotinylated human PD-L1. In words: PD-L1/PD-1 competition ELISA with human serum albumin. Background: ELISA stands for enzyme-linked immunosorbent assay.
The target in another test is T4, human serum albumin (human, UniProt P02768 25-609).
T4 construct: Amine-coupled to a CM5 chip; assay at pH 5.5; also called HSA; human SA
In words: SPR (Biacore T200); SA amine-coupled; pH 5.5. In general terms: SPR reads the build-up and loss of mass on a sensor chip optically.

Test [12] addresses T2, human PD-L1 expressed on cells. In words: cell-based or functional assay. The source holds these as a separate data set.

B1: PRO1126: 38-02-A04 sc01 scDb-i/33_03_G02 sc03 Full scDb-o (bispecific antibody)
chain: DFQLTQSPSSLSASVGDRVTITCQASQSINDYLAWYQQKPGKSPKLLIYKASTLASGVPSRFSGSGSGTDFTLTISSLQPEDFATYYCQQGYIITDIDNVFGTGTKVTVLGGGGGSQVQLQESGPGLVKPSETLSLTCKVSGFSFSNSYWICWIRQPPGKGLEWIGCTFVGSSDSTYYANWAKGRVTISVDSSKNQFSLKLSSVTAADTAVYYCARHPSDAVYGYANNLWGQGTLVTVSSGGGGSGGGGSGGGGSGGGGSIQMTQSPSSLSASVGDRVTITCQASQSINNVLAWYQQKPGKAPKLLIYRASTLASGVPSRFSGSGSGTDFTLTISSLQPEDFATYYCQSSYGNYGDFGTGTKVTVLGGGGGSQSQLQESGPGLVKPSETLSLTCKASGFSFSSGYDMCWVRQPPGKGLEWIACVVAGSVDITYYASWAKGRVTISKDSSKNQVSLKLSSVTAADTAVYFCARKDAYSDAFNLWGQGTLVTVSS
notes: scDb, STR graft of the PD-L1 domain
As to B1, the “EC50 in ng/ml, CD137 activation, NFkB-luciferase Jurkat reporter assay, CHO-PD-L1 cells” value in [1] was determined as 6 ng/mL. Moreover, in test [2], the “IC50, neutralization of PD-L1/PD-1 interaction, NFAT-luciferase reporter gene assay” value turned out to be 0.0481 µg/mL. For the same molecule, in test [3], the “EC50 in ng/ml, CD137 activation, NFkB-luciferase Jurkat reporter assay, HCC827 cells stimulated with IFNg” value is 5.48 ng/mL. In the test with biotinylated human PD-L1 [4], the half-maximal inhibitory concentration (IC50) was 0.00128 µg/mL. Moreover, in test [5], the “max. activation (%), NF-kB reporter gene, CHO-PD-L1; HSA: no” value is 242%; the “max. activation (%), NF-kB reporter gene, HCC827 +IFNg; HSA: no” value worked out at 208%; the “max. activation (%), NF-kB reporter gene, HCC827 -IFNg; HSA: no” value is 135%. In addition, the “EC50 in ng/ml, CD137 activation, NFkB-luciferase Jurkat reporter assay, HCC827 cells without IFNg” value in test [6] stood at 6.97 ng/mL.

B2: PRO1057: 38_02_A04 sc01 scDb-i/33-03-G02 sc01 scDb-o/mxr HSA (23-13-A01-sc03, sk17sh4) (other)
chain: DIQMTQSPSSLSASVGDRVTITCQASQSINDYLAWYQQKPGKAPKLLIYKASTLASGVPSRFSGSGSGTDFTLTISSLQPEDFATYYCQQGYIITDIDNVFGTGTKVTVLGGGGGSQVQLQESGPGLVKPSETLSLTCKVSGFSFSNSYWICWIRQPPGKGLEWIGCTFVGSSDSTYYANWAKGRVTISVDSSKNQFSLKLSSVTAADTAVYYCARHPSDAVYGYANNLWGQGTLVTVSSGGGGSGGGGSGGGGSGGGGSIQMTQSPSSLSASVGDRVTITCQASQSINNVLAWYQQKPGKAPKLLIYRASTLASGVPSRFSGSGSGTDFTLTISSLQPEDFATYYCQSSYGNYGDFGTGTKVTVLGGGGGSQVQLQESGPGLVKPSETLSLTCKVSGFSFSSGYDMCWIRQPPGKGLEWIGCVVAGSVDITYYASWAKGRVTISVDSSKNQFSLKLSSVTAADTAVYYCARKDAYSDAFNLWGQGTLVTVSSGGGGSGGGGSVVMTQSPSSLSASVGDRVTITCQASQIISSRSAWYQQKPGQPPKLLIYQASKLASGVPSRFSGSGSGTDFTLTISSLQPEDFATYYCQCTYIDSNFGAFGGGTKLTVLGGGGGSGGGGSGGGGSGGGGSEVQLVESGGGLVQPGGSLRLSCAASGFSFSSSYWICWVRQAPGKGLEWVGCVFTGDGTTYYASWAKGRFTISRDNSKNTVYLQMNSLRAEDTATYFCARPVSVYYYGMDLWGQGTLVTVSS
notes: Trispecific scTriabody (scDb-scFv)
Turning to B2, the “EC50 in ng/ml, CD137 activation, NFkB-luciferase Jurkat reporter assay, PD-L1 expressing CHO cells, 6h, + HSA” value in [7] was 112 ng/mL. The figures for the IC50 with biotinylated human PD-L1 [8] and with biotinylated human PD-L1 [4] were 0.0163 µg/mL and 0.00861 µg/mL, respectively. In addition, the “EC50 in ng/ml, CD137 activation, NFkB-luciferase Jurkat reporter assay, PD-L1 expressing CHO cells, 24h, + HSA” value in test [9] was 792 ng/mL. The “EC50 in ng/ml, CD137 activation, NFkB-luciferase Jurkat reporter assay, HCC827 with IFNy stimulation, 24h, +HSA” value in test [10] is 115 ng/mL. Further, in test [10], the “EC50 in ng/ml, CD137 activation, NFkB-luciferase Jurkat reporter assay, HCC827 without IFNy stimulation, 24h, +HSA” value turned out to be 76.6 ng/mL. For the same molecule, in the test with biotinylated human PD-L1 [11], the “fold change of IC50 in presence of human serum albumin” value was roughly 2 fold. For the same molecule, in the test with human serum albumin, the binding result was “binds”. Besides, the “max. activation (%), NF-kB reporter gene, CHO-PD-L1; HSA: yes, 24h” value in test [5] is 663%. Further, the “IC50 (ng/ml), neutralization of PD-L1/PD-1 interaction, NFAT-luciferase reporter gene assay, with HSA” value in test [12] stood at 665 ng/mL.

The term IC50 denotes the point on the concentration scale where inhibition reaches its midpoint. A low value points to greater potency.

These data come from patent EP3470428A1 (Numab Innovation AG, dated 2019).
